Data taken from PMC10556103, “Autoantibody binding and unique enzyme-substrate intermediate conformation of human transglutaminase 3” (Nature Communications, 2023).

Key:
Assay in all cases: crystal structure; TG3 form mixed with Fab DH63-B02 at 1:1.1 molar ratio, complex purified by SEC; crystals in 0.1 M HEPES-MOPS pH 7.1, 16-22% ethylene glycol, 8-11% PEG 8000, 6-10 mM CaCl2, 3-10 mM MgCl2; three Ca2+ bound
Settings in all cases: both partners purified
[1] = molecular target: T1, dispase-cleaved TG3 (N-terminal and core domains with C1C2 non-covalently associated) (Homo sapiens, UniProt Q08188)
T1 construct: human transglutaminase 3, N-terminal and catalytic core domains (N-core, 51 kDa) left by dispase cleavage in the loop 461-473; human transglutaminase 3, the two C-terminal beta-barrel domains C1C2 (26 kDa) left by dispase cleavage in the loop 461-473; TG3 was His-tagged before cleavage; source: Sf9 insect cells, purified (Ni-NTA); cleaved with dispase I, SEC
T1 sequence (Q08188 whole entry, chain 1 of 2, the tested form may be a part): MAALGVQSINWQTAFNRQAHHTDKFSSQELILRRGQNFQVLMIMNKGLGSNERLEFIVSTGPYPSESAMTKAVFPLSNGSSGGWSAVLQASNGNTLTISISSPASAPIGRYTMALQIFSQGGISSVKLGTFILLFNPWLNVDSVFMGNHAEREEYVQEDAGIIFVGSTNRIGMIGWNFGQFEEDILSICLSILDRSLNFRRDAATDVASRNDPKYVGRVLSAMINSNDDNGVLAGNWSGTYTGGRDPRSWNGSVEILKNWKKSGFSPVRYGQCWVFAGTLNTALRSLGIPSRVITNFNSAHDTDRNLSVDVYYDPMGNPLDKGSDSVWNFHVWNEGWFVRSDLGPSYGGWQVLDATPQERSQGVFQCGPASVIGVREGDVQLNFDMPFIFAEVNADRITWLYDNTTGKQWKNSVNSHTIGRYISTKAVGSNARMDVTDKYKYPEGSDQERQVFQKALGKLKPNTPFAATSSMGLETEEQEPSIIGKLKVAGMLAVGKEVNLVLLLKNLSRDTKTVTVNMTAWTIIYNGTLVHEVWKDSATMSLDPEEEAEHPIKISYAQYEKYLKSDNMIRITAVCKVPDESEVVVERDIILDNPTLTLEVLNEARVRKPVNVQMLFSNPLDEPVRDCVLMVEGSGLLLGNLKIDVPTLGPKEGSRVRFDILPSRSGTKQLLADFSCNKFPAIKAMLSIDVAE
T1 sequence (Q08188 whole entry, chain 2 of 2, the tested form may be a part): as the sequence (Q08188 whole entry, chain 1 of 2, the tested form may be a part) above

[2] = molecular target: T2, Z-DON-associated TG3 without C1C2 (enzyme-substrate intermediate conformer) (human, UniProt Q08188, Cys273 alkylated by Z-DON (Z-DON-Val-Pro-Leu-OMe))
T2 construct: human transglutaminase 3, N-terminal and catalytic core domains (N-core, 51 kDa) left by cleavage in the loop 461-473; TG3 was His-tagged before cleavage; The cleavage sites of dispase and cathepsin L may differ; also called cleaved TG3 + Z-DON; source: Sf9 insect cells, purified (Ni-NTA); cleaved with dispase I or cathepsin L, incubated with Z-DON, SEC
T2 sequence (Q08188 2-461): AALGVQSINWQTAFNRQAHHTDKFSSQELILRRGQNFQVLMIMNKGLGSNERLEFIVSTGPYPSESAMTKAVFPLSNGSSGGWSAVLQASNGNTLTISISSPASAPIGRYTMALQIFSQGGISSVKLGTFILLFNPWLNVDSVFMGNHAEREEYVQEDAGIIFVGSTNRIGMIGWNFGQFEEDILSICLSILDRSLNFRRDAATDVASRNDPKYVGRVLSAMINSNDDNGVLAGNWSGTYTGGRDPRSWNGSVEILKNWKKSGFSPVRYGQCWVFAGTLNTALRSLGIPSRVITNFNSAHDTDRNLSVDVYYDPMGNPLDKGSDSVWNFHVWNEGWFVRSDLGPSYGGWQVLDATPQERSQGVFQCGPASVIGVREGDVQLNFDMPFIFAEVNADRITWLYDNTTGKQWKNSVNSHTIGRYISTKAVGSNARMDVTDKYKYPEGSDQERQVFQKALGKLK

[3] = molecular target: T3, N-terminal and core domains (N-core) of cleaved TG3 (Homo sapiens, UniProt Q08188)
T3 construct: human transglutaminase 3, N-terminal and catalytic core domains (N-core, 51 kDa) left by cleavage in the loop 461-473; also called catalytic core domain; catalytic domain; source: Sf9 insect cells, purified (Ni-NTA); cleaved with dispase I or cathepsin L, SEC
T3 sequence (Q08188 whole entry, the tested form may be a part): as the sequence (Q08188 whole entry, chain 1 of 2, the tested form may be a part) above

[4] = molecular target: T4, zymogen transglutaminase 3 (TG3), human recombinant (Homo sapiens, UniProt Q08188)
T4 construct: human transglutaminase 3, uncleaved zymogen (79 kDa), with N-terminal, catalytic core, C1 and C2 domains; the loop 461-473 is intact; also called TG3 zymogen; zymogen TG3; source: Sf9 insect cells, purified (Ni-NTA)
T4 sequence (Q08188 whole entry, the tested form may be a part): as the sequence (Q08188 whole entry, chain 1 of 2, the tested form may be a part) above

binding result [1]: binds | binding result [2]: binds | binding result [3]: binds | binding result [4]: binds
B1: Fab fragment of the anti-TG3 antibody DH63-B02 (Fab, V domains shown)
VH: EVQLVESGGGLVQPGRSLRLSCTASGFTFDDYAMHWVRQAPGKGLEWVSRISWNSRSIAYADSVKGRFTISRDSAKNSLYLQMNSLRTEDTALYYCAKDHYLGSDSYGMDVWGQGTTVTVSS
VL: NFMLTQPHSVSESPGKTVTISCTRSSGSIDSNYVQWYQQRPGSAPTIVIHEDNQRPSGVPDRFSGSIDTSSNSASLTISGLKTEDEADYYCQSYDPSNVVFGGGTKLTVL
notes: Fab heavy chain of the human antibody DH63-B02 from a dermatitis herpetiformis patient; Fab light chain of DH63-B02, purified on a resin for human lambda light chains; also called Fab DH63-B02; the Fab
